{
  "source": "paper PMC7305465",
  "about": "“A Cardiac Troponin T Biosensor Based on Aptamer Self-assembling on Gold”",
  "target": "cardiac troponin T (TnT) (human, UniProt P45379 2-298)",
  "assay": "electrochemical aptasensor (DPV, ferro/ferricyanide); 0.05-5 ng/mL TnT; LOD 0.01 ng/mL; aptamer on gold; TnT binding at 37 C, ~30 min, working pH 7.4; aptamer immobilized from 10 mM phosphate, 5 mM NaCl, 2 mM KCl, 1 mM MgCl2, pH 7.4; DPV in 20 mM Tris-HCl, 0.5 M KCl, 0.5 M ferro/ferricyanide",
  "conditions": "protein: commercial",
  "data": [
    {"binder": "CGTGCAGTACGCCAACCTTTCTCATGCGCTGCCCCTCTTA (structured_DNA, 5'-SH-(CH2)6 thiol)", "note": "[TnT aptamer]", "values": [
      {"measurement": "binding result", "value": "binds"}
    ]}
  ]
}
